Our source for the Kd and other: t1/2 values is paper PMC4725365.

Experiment [1] has as its target A1-MAGE-A3 (HLA-A*0101 with the MAGE-A3 peptide …), biotinylated. Put plainly: SPR (single cycle kinetics). To be noted: 25 °C; approximately 150 RUs of biotinylated pMHC immobilised onto a CM5 amine chip.
For experiment [2], the target named is A1-Titin (HLA-A*0101 with the Titin peptide …), biotinylated. As to the kind of experiment: SPR (single cycle kinetics). As to conditions: 25 °C; approximately 150 RUs of biotinylated pMHC immobilised onto a CM5 amine chip.
Experiment [3] addresses A1-Titin (HLA-A*0101 with the Titin peptide ), biotinylated. As to the kind of experiment: SPR.
In experiment [4] the target is A1-MAGE-A3 (HLA-A*0101 with the MAGE-A3 peptide ), biotinylated. Put plainly: SPR.

Turning to MAG-IC3 TCR F51T, in experiment [1], the Kd was 0.0032 µM and the other: t1/2 was determined as 66 min.

In experiment [2], MAG-IC3 TCR F51W returned a Kd of 0.172 µM and an other: t1/2 of 1.5 min. This substance also displayed an other: t1/2 in experiment [1] of 20 min.

In the case of MAG-IC3 TCR N97D, the Kd in experiment [2] is 0.916 µM.

In experiment [2], MAG-IC3 TCR N97E gave an equilibrium dissociation constant (Kd) of 0.743 µM. In experiment [1], the other: t1/2 amounted to 14 min.

MAG-IC3 TCR N97Q had a Kd in experiment [1] of 0.059 µM.

For the substance MAG-IC3 TCR R31L, the equilibrium dissociation constant (Kd) in experiment [2] worked out at 0.093 µM; in experiment [1], 0.0134 µM.

In experiment [3], MAG-IC3 TCR mutant F51T (β chain) gave an equilibrium dissociation constant (Kd) of 0.0976 µM. This lies in the double-digit nanomolar range.

As to MAG-IC3 TCR mutant F51W (β chain), the Kd in experiment [4] came to 0.0084 µM.

Consider MAG-IC3 TCR mutant N97D (β chain), for which, in experiment [4], the Kd is 0.0993 µM.

With MAG-IC3 TCR mutant N97E (β chain), in experiment [4], the equilibrium dissociation constant (Kd) was 0.035 µM.

In turn, MAG-IC3 TCR mutant N97Q (β chain) showed a Kd in experiment [3] of 0.601 µM.

For MAG-IC3 TCR mutant R31W (β chain), the dissociation constant Kd in experiment [3] was 0.1 µM; in experiment [4] it was 0.0062 µM.
